Experimental data from IntAct's records for PubMed 20368419.

B1: Nibrin (Homo sapiens), O60934 (parent)
chain: MWKLLPAAGPAGGEPYRLLTGVEYVVGRKNCAILIENDQSISRNHAVLTANFSVTNLSQTDEIPVLTLKDNSKYGTFVNEEKMQNGFSRTLKSGDGITFGVFGSKFRIEYEPLVACSSCLDVSGKTALNQAILQLGGFTVNNWTEECTHLVMVSVKVTIKTICALICGRPIVKPEYFTEFLKAVESKKQPPQIESFYPPLDEPSIGSKNVDLSGRQERKQIFKGKTFIFLNAKQHKKLSSAVVFGGGEARLITEENEEEHNFFLAPGTCVVDTGITNSQTLIPDCQKKWIQSIMDMLQRQGLRPIPEAEIGLAVIFMTTKNYCDPQGHPSTGLKTTTPGPSLSQGVSVDEKLMPSAPVNTTTYVADTESEQADTWDLSERPKEIKVSKMEQKFRMLSQDAPTVKESCKTSSNNNSMVSNTLAKMRIPNYQLSPTKLPSINKSKDRASQQQQTNSIRNYFQPSTKKRERDEENQEMSSCKSARIETSCSLLEQTQPATPSLWKNKEQHLSENEPVDTNSDNNLFTDTDLKSIVKNSASKSHAAEKLRSNKKREMDDVAIEDEVLEQLFKDTKPELEIDVKVQKQEEDVNVRKRPRMDIETNDTFSDEAVPESSKISQENEIGKKRELKEDSLWSAKEISNNDKLQDDSEMLPKKLLLTEFRSLVIKNSTSRNPSGINDDYGQLKNFKKFKKVTYPGAGKLPHIIGGSDLIAHHARKNTELEEWLRQEMEVQNQHAKEESLADDLFRYNPYLKRRR

Variants of: B1
Conditions: with pk3cb_human PIK3CB

| Variant | effect of a mutation on the interaction |
| --- | --- |
| K653A;L654A;L655A;L656A | decreasing interaction |
| S661A;L662A;V663A | decreasing interaction |
